Biological target: HPV16 L2 minor capsid protein (UniProt P03107)
Sequence (P03107 whole entry): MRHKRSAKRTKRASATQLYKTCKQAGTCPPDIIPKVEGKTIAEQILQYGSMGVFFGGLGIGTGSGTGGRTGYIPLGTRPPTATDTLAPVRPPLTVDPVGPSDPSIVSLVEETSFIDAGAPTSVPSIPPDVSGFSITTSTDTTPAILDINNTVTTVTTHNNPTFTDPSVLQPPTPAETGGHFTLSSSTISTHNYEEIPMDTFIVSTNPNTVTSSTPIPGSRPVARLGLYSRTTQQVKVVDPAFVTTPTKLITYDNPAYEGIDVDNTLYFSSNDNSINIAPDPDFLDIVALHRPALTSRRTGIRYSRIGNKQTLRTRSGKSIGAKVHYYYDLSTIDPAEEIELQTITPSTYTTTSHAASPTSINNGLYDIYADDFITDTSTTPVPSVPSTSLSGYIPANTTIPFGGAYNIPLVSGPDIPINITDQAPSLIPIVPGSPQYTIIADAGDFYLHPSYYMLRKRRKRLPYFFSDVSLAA

recombinant His-furin
cleavage of HPV16 L2 by furin, immunoblot with anti-HPV16 polyclonal antibody: furin cleaves the L2 protein in the absence of polyR and FI

Reference: patent US20190351013
